The values below come from the supplement of paper PMC7877785.

± gives the uncertainty stated by the source.

This series can be described thus: self-splicing fitness, log relative to wild type (ln ratio); higher = more splicing; Tetrahymena group I intron in knt gene, E. coli kanamycin selection, DiMSum; sequences stand for … in CUCUCU…GGAGGGAAAAGUUAUCAGGCAUGCACCUGGUAGCUAGUCUUUAAACCAAUAGAUUGCAUCGGUUUAAAAGGCAAGACCGUCAAAUUGCGGGAAAGGGGUCAACAGCCGUUCAGUACCAAGUCUCAGGGGAAACUUUGAGAUGGCCUUGCAAAGGGUAUGGUAAUAAGCUGACGGACAUGGUCCUAACCACGCAGCCAAGUCCUAAGUCAACAGAUCUUCUGUUGAUAUGGAUGCAGUUCACAGACUAAAUGUCGGUCGGGGAAGAUGUAUUCUUCUCAUAAGAUAUAGUCGGACCUCUCCUUAAUGGGAGCUAGCGGAUGAAGUGAUGCAACACUGGAGCCGCUGGGAACUAAUUUGUAUGCGAAAGUAUAUUGAUUAGUUUUGGAGUACUCGUGGUCG
The method, boiled down: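 Colonies from six replicate transformations of E. coli BL21(DE3) were pooled and amplicon-sequenced on an Illumina HiSeq 2500. The library placed an intron with all eight P1ex-region nucleotides randomised inside the knt kanamycin-resistance gene on pET-22b(+), and cells grew overnight at 37°C or 30°C on LB agar with or without 25 μg/mL kanamycin (plus 100 μg/mL carbenicillin, 50 μM IPTG, 0.2% rhamnose). Fitness is the DiMSum error-weighted combination of wild-type-normalised replicate fold changes, kanamycin versus none.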

Take CGUAAGCAAUAUUACGGCAG: the “self-splicing fitness (ln)” value reads like this: (30 °C) -0.537 ± 0.091; (37 °C) -0.781 ± 0.095.

On to UCGAAGCAAUAUUACGCAGG, for which the “self-splicing fitness (ln)” value is -3.31 ± 0.23 (30 °C) and -1.8 ± 0.16 (37 °C).

Consider AGAAAGCAAUAUUACGAAUG, for which the “self-splicing fitness (ln)” value was -2.38 ± 0.15 (30 °C) and -2.25 ± 0.19 (37 °C).

CGGGAGCAAUAUUACGGGAU: the “self-splicing fitness (ln)” value (30 °C) was -3.37 ± 0.34.

As for ACGGAGCAAUAUUACGGCGA, the “self-splicing fitness (ln)” value was -2.01 ± 0.13 (30 °C) and -1.83 ± 0.15 (37 °C).

Consider AGAUAGCAAUAUUACGGACC, for which the “self-splicing fitness (ln)” value by setting is: (30 °C) -0.504 ± 0.15; (37 °C) -0.242 ± 0.12.

As to GUCGAGCAAUAUUACGCCGG, where the note is “37 °C”, the “self-splicing fitness (ln)” value is -1.99 ± 0.41.

Take CAGAAGCAAUAUUACGCAGU: the “self-splicing fitness (ln)” value (30 °C) is -2.53 ± 0.19 and the “self-splicing fitness (ln)” value (37 °C) was -3.48 ± 0.23.

For GUGUAGCAAUAUUACGUUAG, the “self-splicing fitness (ln)” value (30 °C) is -2.45 ± 0.25 and the “self-splicing fitness (ln)” value (37 °C) was -1.56 ± 0.22.

For the sequence UUUUAGCAAUAUUACGGCCC, the “self-splicing fitness (ln)” value (37 °C) is -1.14 ± 0.42.

CACAAGCAAUAUUACGCGCG: the “self-splicing fitness (ln)” value runs as follows: (30 °C) -0.772 ± 0.066; (37 °C) -0.607 ± 0.071.

In the case of AGCAAGCAAUAUUACGAUGA, the “self-splicing fitness (ln)” value runs as follows: (30 °C) -1.33 ± 0.085; (37 °C) -0.569 ± 0.088.

Regarding AAUCAGCAAUAUUACGACAC, the “self-splicing fitness (ln)” value is -0.56 ± 0.12 (30 °C) and -1.46 ± 0.15 (37 °C).

Consider CGUGAGCAAUAUUACGACCU, for which the “self-splicing fitness (ln)” value is, setting by setting: (30 °C) -1.34 ± 0.28; (37 °C) -1.17 ± 0.3.

Take CUCGAGCAAUAUUACGACUG: the “self-splicing fitness (ln)” value runs as follows: (30 °C) -1.28 ± 0.1; (37 °C) -0.299 ± 0.15.

On to AAGUAGCAAUAUUACGGGUC, for which the “self-splicing fitness (ln)” value is, setting by setting: (30 °C) -3.44 ± 0.16; (37 °C) -2.84 ± 0.19.

Consider ACAAAGCAAUAUUACGGGUC, for which the “self-splicing fitness (ln)” value by setting is: (30 °C) -3.18 ± 0.14; (37 °C) -1.76 ± 0.2.

For CCUCAGCAAUAUUACGAGGG, the “self-splicing fitness (ln)” value is -4.16 ± 0.26 (30 °C) and -2.73 ± 0.28 (37 °C).

On to UACCAGCAAUAUUACGACAA, for which the “self-splicing fitness (ln)” value is, setting by setting: (30 °C) -0.483 ± 0.099; (37 °C) -0.494 ± 0.09.

In the case of AACGAGCAAUAUUACGCCAG, the “self-splicing fitness (ln)” value runs as follows: (30 °C) -4.01 ± 0.37; (37 °C) -1.56 ± 0.32.

Take CGGGAGCAAUAUUACGUAUU: the “self-splicing fitness (ln)” value is, setting by setting: (30 °C) -4.48 ± 0.41; (37 °C) -2.31 ± 0.37.

Regarding GGUAAGCAAUAUUACGAGCA, the “self-splicing fitness (ln)” value by setting is: (30 °C) -0.801 ± 0.093; (37 °C) -0.377 ± 0.12.

In the case of AACAAGCAAUAUUACGGUGA, the “self-splicing fitness (ln)” value runs as follows: (30 °C) -0.546 ± 0.059; (37 °C) -0.765 ± 0.073.

Regarding AUCGAGCAAUAUUACGUUUG, the “self-splicing fitness (ln)” value (30 °C) was -4.29 ± 0.3 and the “self-splicing fitness (ln)” value (37 °C) was -2.05 ± 0.21.

Take CAUAAGCAAUAUUACGAAAC: the “self-splicing fitness (ln)” value by setting is: (30 °C) -3.31 ± 0.39; (37 °C) -2.38 ± 0.45.

As to CAUAAGCAAUAUUACGGUAU, the “self-splicing fitness (ln)” value is -4.64 ± 0.26 (30 °C) and -2.94 ± 0.21 (37 °C).

Consider AACCAGCAAUAUUACGCCCC, for which the “self-splicing fitness (ln)” value is -0.331 ± 0.12 (30 °C) and -0.517 ± 0.17 (37 °C).

Consider GUGCAGCAAUAUUACGCGUU, for which the “self-splicing fitness (ln)” value by setting is: (30 °C) -2.7 ± 0.11; (37 °C) -1.18 ± 0.1.

Regarding UGCGAGCAAUAUUACGGACG, the “self-splicing fitness (ln)” value by setting is: (30 °C) -1.24 ± 0.15; (37 °C) -1.19 ± 0.17.

On to UUGGAGCAAUAUUACGGGCG, for which the “self-splicing fitness (ln)” value was -3.99 ± 0.39 (30 °C) and -2.13 ± 0.31 (37 °C).

In the case of GCGCAGCAAUAUUACGCCCA, the “self-splicing fitness (ln)” value (30 °C) amounted to 0.169 ± 0.24 and the “self-splicing fitness (ln)” value (37 °C) is -0.637 ± 0.33.

With UUGAAGCAAUAUUACGGAAC, the “self-splicing fitness (ln)” value (30 °C) is -3.62 ± 0.32 and the “self-splicing fitness (ln)” value (37 °C) is -2.08 ± 0.3.

For ACGGAGCAAUAUUACGGUCU, the “self-splicing fitness (ln)” value (30 °C) was -3.07 ± 0.21 and the “self-splicing fitness (ln)” value (37 °C) was -2.44 ± 0.26.

For the sequence CCGAAGCAAUAUUACGUAAC, the “self-splicing fitness (ln)” value (30 °C) is -4.94 ± 0.34 and the “self-splicing fitness (ln)” value (37 °C) was -1.67 ± 0.2.

As for AGUCAGCAAUAUUACGAAAG, the “self-splicing fitness (ln)” value reads like this: (30 °C) -3.43 ± 0.23; (37 °C) -1.45 ± 0.2.

Regarding UACUAGCAAUAUUACGAUGC, the “self-splicing fitness (ln)” value (30 °C) was -4.22 ± 0.26 and the “self-splicing fitness (ln)” value (37 °C) is -2.54 ± 0.3.

Turning to UAGCAGCAAUAUUACGGGUG, the “self-splicing fitness (ln)” value reads like this: (30 °C) -0.481 ± 0.058; (37 °C) -0.431 ± 0.075.

For the sequence CUCCAGCAAUAUUACGCUGC, the “self-splicing fitness (ln)” value is, setting by setting: (30 °C) -3.32 ± 0.15; (37 °C) -2.07 ± 0.21.

Regarding CACCAGCAAUAUUACGCCAC, the “self-splicing fitness (ln)” value is -3.58 ± 0.16 (30 °C) and -2.42 ± 0.17 (37 °C).

Take ACUGAGCAAUAUUACGUGAG: the “self-splicing fitness (ln)” value runs as follows: (30 °C) -1.82 ± 0.063; (37 °C) -1.36 ± 0.085.

For GAACAGCAAUAUUACGCAAU, the “self-splicing fitness (ln)” value was -1.53 ± 0.11 (30 °C) and -0.769 ± 0.11 (37 °C).

For the sequence UAAGAGCAAUAUUACGAACU, where the note is “30 °C”, the “self-splicing fitness (ln)” value was -2.49 ± 0.47.

Regarding AUGCAGCAAUAUUACGUCUG, the “self-splicing fitness (ln)” value (30 °C) is -3.64 ± 0.35 and the “self-splicing fitness (ln)” value (37 °C) was -0.405 ± 0.16.

As to ACUCAGCAAUAUUACGUAUC, the “self-splicing fitness (ln)” value is, setting by setting: (30 °C) -2.28 ± 0.14; (37 °C) -1.66 ± 0.14.

In the case of UUCGAGCAAUAUUACGGGCU, for the setting “37 °C”, the “self-splicing fitness (ln)” value is -3.81 ± 0.42.

On to UGAGAGCAAUAUUACGAUGC, for which the “self-splicing fitness (ln)” value reads like this: (30 °C) -2.13 ± 0.39; (37 °C) -0.477 ± 0.45.

With CUUCAGCAAUAUUACGAACC, the “self-splicing fitness (ln)” value is, setting by setting: (30 °C) -1.67 ± 0.41; (37 °C) -1.18 ± 0.35.

As to UUUGAGCAAUAUUACGAGGU, the “self-splicing fitness (ln)” value is, setting by setting: (30 °C) -4.2 ± 0.46; (37 °C) -3.66 ± 0.46.

GGGAAGCAAUAUUACGUUGU: the “self-splicing fitness (ln)” value (30 °C) was -3.23 ± 0.22 and the “self-splicing fitness (ln)” value (37 °C) was -2.31 ± 0.29.

Regarding UGCUAGCAAUAUUACGAUCU, the “self-splicing fitness (ln)” value was -0.537 ± 0.11 (30 °C) and -0.24 ± 0.1 (37 °C).

On to AAGCAGCAAUAUUACGAGGU, for which the “self-splicing fitness (ln)” value is -3.55 ± 0.16 (30 °C) and -2.65 ± 0.19 (37 °C).

GCUGAGCAAUAUUACGGGGG: the “self-splicing fitness (ln)” value (30 °C) is -2.59 ± 0.2 and the “self-splicing fitness (ln)” value (37 °C) is -1.8 ± 0.21.

As to AAUUAGCAAUAUUACGGUAC, the “self-splicing fitness (ln)” value is, setting by setting: (30 °C) -2.42 ± 0.16; (37 °C) -1.22 ± 0.2.

For the sequence GCGUAGCAAUAUUACGGUAG, the “self-splicing fitness (ln)” value is -2.9 ± 0.28 (30 °C) and -2.03 ± 0.23 (37 °C).

CGAGAGCAAUAUUACGUCAG: the “self-splicing fitness (ln)” value is -2.31 ± 0.17 (30 °C) and -2.54 ± 0.21 (37 °C).

CUGUAGCAAUAUUACGCUGG: under “37 °C”, the “self-splicing fitness (ln)” value was -0.992 ± 0.34.

In the case of ACGGAGCAAUAUUACGCAAA, the “self-splicing fitness (ln)” value reads like this: (30 °C) -2.73 ± 0.25; (37 °C) -1.58 ± 0.22.

As for ACAUAGCAAUAUUACGCCAG, the “self-splicing fitness (ln)” value is -2.65 ± 0.18 (30 °C) and -1.5 ± 0.21 (37 °C).

Consider CUGUAGCAAUAUUACGUAGC, for which the “self-splicing fitness (ln)” value runs as follows: (30 °C) -5.54 ± 0.36; (37 °C) -2.93 ± 0.32.

With CGUCAGCAAUAUUACGGCAU, the “self-splicing fitness (ln)” value (30 °C) is -0.76 ± 0.074 and the “self-splicing fitness (ln)” value (37 °C) was -0.608 ± 0.081.

For the sequence CUUAAGCAAUAUUACGCAUU, the “self-splicing fitness (ln)” value was -3.82 ± 0.2 (30 °C) and -1.92 ± 0.17 (37 °C).

For the sequence UACAAGCAAUAUUACGGGUU, the “self-splicing fitness (ln)” value is -2.8 ± 0.091 (30 °C) and -1.63 ± 0.097 (37 °C).
